Target: VEGF (Homo sapiens, UniProt P15692-4 P15692-4:27-191)
Test: EMSA; 1:1 molar ratio, 3 h, room temperature, 100 mM phosphate neutral pH, 10% TBE gel; high MW complex band; confirmed by HPLC-SEC at 552 nm (FIG. 33)
Details: chain copies: 2; label: 5' Cy3
From the text: The biological activity and therapeutic action of the anti-VEGF aptamer resides in its binding to its target: human recombinant VEGF. Without access to a growth factor, some cells will not be able to proliferate or survive; thus, these molecules are drug targets. Some drugs or drug candidates operate by binding to a growth factor; these molecules can be in the antibody (naturally produced or synthetically constructed) or the apatamer (nucleic acids) classes (e.g., any binding partner in theory). […] A shift mobility assay, using a 10% TBE gel, was used in order to assess the binding of HEP-aptamer to target (FIG. 32). […] As negative and positive control, VEGF was respectively incubated in the presence of heparosan (HEP) or heparin (i.e., VEGF is known to react with heparin and heparan sulfate).

VEGF, sequence (P15692 other isoform, or with tags, fused parts or gaps): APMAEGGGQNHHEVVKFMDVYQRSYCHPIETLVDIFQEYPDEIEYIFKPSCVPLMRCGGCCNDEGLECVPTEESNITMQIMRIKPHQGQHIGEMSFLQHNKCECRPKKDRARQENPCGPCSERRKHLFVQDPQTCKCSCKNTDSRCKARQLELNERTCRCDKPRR

B1: HEP-anti-VEGF DNA aptamer (ssDNA)
DNA: ACCCGTCTTCCAGACAAGAGTGCAGGGTT
modifications: 3' C6 thiol coupled to heparosan (38.8- or 60-kDa chain)
  binding result: binds

From US20150118185, “Heparosan-Polypeptide and Heparosan-Polynucleotide Drug Conjugates and Methods of Making and Using Same” (The Board of Regents of the University of Oklahoma, published 2015)
